Data as given in patent US20210024654A1 (AMPHIVENA THERAPEUTICS, published 2021).

target: human CD3 (human, UniProt P07766 23-207); test: cell-based or functional assay
Sequence (P07766 23-207): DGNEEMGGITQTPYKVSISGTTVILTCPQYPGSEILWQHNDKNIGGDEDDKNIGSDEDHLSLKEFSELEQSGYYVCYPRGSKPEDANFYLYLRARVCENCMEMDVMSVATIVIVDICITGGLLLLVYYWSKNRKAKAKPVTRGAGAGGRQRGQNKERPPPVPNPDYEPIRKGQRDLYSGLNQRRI

| Binder | T cell Proliferation in PBMC EC50 [nM] |
| --- | --- |
| CD33/CD3 tandem diabody 20 (bispecific antibody) DIQMTQSPSSLSASVGDRVTITCRSSTGAVTTSNYANWVQQKPGKAPKGLIGGTNKRAPGVPSRFSGSLIGTDFTLTISSLQPEDFATYYCALWYSNLWVFGQGTKVEIKGGSGGSQVQLVQSGAEVKKPGASVKVSCKASGYTFTSYYMHWVRQAPGQGLEWMGIINPSGGSTSYAQKFQGRVTMTRDTSTSTVYMELSSLRSEDTAVYYCARDVVPAAIDYYGMDVWGQGTTVTVSSGGSGQSVLTQPPSASGTPGQRVTISCSGSSSNIGSNTVNWYQQLPGTAPKLLIYSDNQRPSGVPDRFSGSKSGSSASLAISGLQSDDEADYYCATWDDSLNGAVFGGGTKLTVLGGSGGSEVQLVESGGGLVQPGGSLRLSCAASGFTFSTYAMNWVRQAPGKGLEWVGRIRSKYNNYATYYADSVKDRFTISRDDSKNSLYLQMNSLKTEDTAVYYCARHGNFGNSYVSWFAYWGQGTLVTVSS | 0.038 |

target: cynomolgus CD33 (cynomolgus); test: flow cytometry KDs on CHO cells, cyno CD33 / human CD33

| Binder | KD ratio CynoCD33/huCD33 |
| --- | --- |
| CD33/CD3 tandem diabody 20 (bispecific antibody) DIQMTQSPSSLSASVGDRVTITCRSSTGAVTTSNYANWVQQKPGKAPKGLIGGTNKRAPGVPSRFSGSLIGTDFTLTISSLQPEDFATYYCALWYSNLWVFGQGTKVEIKGGSGGSQVQLVQSGAEVKKPGASVKVSCKASGYTFTSYYMHWVRQAPGQGLEWMGIINPSGGSTSYAQKFQGRVTMTRDTSTSTVYMELSSLRSEDTAVYYCARDVVPAAIDYYGMDVWGQGTTVTVSSGGSGQSVLTQPPSASGTPGQRVTISCSGSSSNIGSNTVNWYQQLPGTAPKLLIYSDNQRPSGVPDRFSGSKSGSSASLAISGLQSDDEADYYCATWDDSLNGAVFGGGTKLTVLGGSGGSEVQLVESGGGLVQPGGSLRLSCAASGFTFSTYAMNWVRQAPGKGLEWVGRIRSKYNNYATYYADSVKDRFTISRDDSKNSLYLQMNSLKTEDTAVYYCARHGNFGNSYVSWFAYWGQGTLVTVSS | 33.8 |
| CD33/CD3 tandem diabody 14 (bispecific antibody) DIQMTQSPSSLSASVGDRVTITCRSSTGAVTTSNYANWVQQKPGKAPKALIGGTNKRAPGVPSRFSGSLIGDKATLTISSLQPEDFATYYCALWYSNLWVFGQGTKVEIKGGSGGSQVQLVQSGAEVKKPGASVKVSCKASGYTFTSYDINWVRQAPGQGLEWMGWMNPNSGNTGFAQKFQGRVTMTRDTSTSTVYMELSSLRSEDTAVYYCARDRANTDFSYGMDVWGQGTLVTVSSGGSGQSVLTQPPSASGTPGQRVTISCSGSRSNIGSNTVNWYQQLPGTAPKLLIYGNNQRPSGVPDRFSGSKSGSSASLAISGLQSEDEADYYCATWDDSLIGWVFGGGTKLTVLGGSGGSEVQLVESGGGLVQPGGSLRLSCAASGFTFSTYAMNWVRQAPGKGLEWVGRIRSKYNNYATYYADSVKDRFTISRDDSKNSLYLQMNSLKTEDTAVYYCARHGNFGNSYVSYFAYWGQGTLVTVSSAAAGSHHHHHH | 1 |
| CD33/CD3 tandem diabody 15 (bispecific antibody) DIQMTQSPSSLSASVGDRVTITCRSSTGAVTTSNYANWVQQKPGKAPKALIGGTNKRAPGVPSRFSGSLIGDKATLTISSLQPEDFATYYCALWYSNLWVFGQGTKVEIKGGSGGSQVQLVQSGAEVKKPGASVKVSCKASGYTFTSYDINWVRQAPGQGLEWMGWMNPNSGNTGFAQKFQGRVTMTRDTSTSTVYMELSSLRSEDTAVYYCARDRANTDYSFGMDVWGQGTLVTVSSGGSGQSVLTQPPSASGTPGQRVTISCSGSRSNIGSNTVNWYQQLPGTAPKLLIYGNNQRPSGVPDRFSGSKSGTSASLAISGLQSEDEADYYCATWDDSLIGWVFGGGTKLTVLGGSGGSEVQLVESGGGLVQPGGSLRLSCAASGFTFSTYAMNWVRQAPGKGLEWVGRIRSKYNNYATYYADSVKDRFTISRDDSKNSLYLQMNSLKTEDTAVYYCARHGNFGNSYVSYFAYWGQGTLVTVSSAAAGSHHHHHH | 1.1 |
| CD33/CD3 tandem diabody 16 (bispecific antibody) DIQMTQSPSSLSASVGDRVTITCRSSTGAVTTSNYANWVQQKPGKAPKALIGGTNKRAPGVPSRFSGSLIGDKATLTISSLQPEDFATYYCALWYSNLWVFGQGTKVEIKGGSGGSQVQLVQSGAEVKKPGASVKVSCKASGYTFTSYDINWVRQAPGQGLEWMGWMNPNSGNTGFAQKFQGRVTMTRDTSTSTVYMELSSLRSEDTAVYYCARDRANTDYSLGMDVWGQGTLVTVSSGGSGQSVLTQPPSASGTPGQRVTISCSGSRSNIGSNTVNWYQQLPGTAPKLLIYGNNQRPSGVPDRFSGSKSGTSASLAISGLQSEDEADYYCATWDDSLIGWVFGGGTKLTVLGGSGGSEVQLVESGGGLVQPGGSLRLSCAASGFTFSTYAMNWVRQAPGKGLEWVGRIRSKYNNYATYYADSVKDRFTISRDDSKNSLYLQMNSLKTEDTAVYYCARHGNFGNSYVSYFAYWGQGTLVTVSSAAAGSHHHHHH | 1.4 |
| CD33/CD3 tandem diabody 17 (bispecific antibody) DIQMTQSPSSLSASVGDRVTITCRSSTGAVTTSNYANWVQQKPGKAPKALIGGTNKRAPGVPSRFSGSLIGDKATLTISSLQPEDFATYYCALWYSNLWVFGQGTKVEIKGGSGGSQVQLVQSGAEVKKPGESLKISCKGSGYSFTSYWIGWVRQMPGKGLEWMGIIYPGDSDTRYSPSFQGQVTISADKSISTAYLQWSSLKASDTAMYYCARHKRGSDAFDIWGQGTTVTVSSGGSGQSVLTQPPSVSGAPGQRVTISCTGSSSNIGAGYDVHWYQQLPGTAPKLLIYGNSNRPSGVPDRFSGSKSGTSASLAITGLQAEDEADYYCQSYDSSLSDVVFGGGTKLTVLGGSGGSEVQLVESGGGLVQPGGSLRLSCAASGFTFSTYAMNWVRQAPGKGLEWVGRIRSKYNNYATYYADSVKDRFTISRDDSKNSLYLQMNSLKTEDTAVYYCARHGNFGNSYVSYFAYWGQGTLVTVSSAAAGSHHHHHH | 1.9 |
| CD33/CD3 tandem diabody 18 (bispecific antibody) EVQLVESGGGLVQPGGSLRLSCAASGFTFSTYAMNWVRQAPGKGLEWVGRIRSKYNNYATYYADSVKDRFTISRDDSKNSLYLQMNSLKTEDTAVYYCARHGNFGNSYVSYFAYWGQGTLVTVSSGGSGGSQSVLTQPPSVSGAPGQRVTISCTGSSSNIGAGYDVHWYQQLPGTAPKLLIYGNSNRPSGVPDRFSGSKSGTSASLAITGLQAEDEADYYCQSYDSSLSDVVFGGGTKLTVLGGSGQVQLVQSGAEVKKPGESLKISCKGSGYSFTSYWIGWVRQMPGKGLEWMGIIYPGDSDTRYSPSFQGQVTISADKSISTAYLQWSSLKASDTAMYYCARHKRGSDAFDIWGQGTTVTVSSGGSGGSDIQMTQSPSSLSASVGDRVTITCRSSTGAVTTSNYANWVQQKPGKAPKALIGGTNKRAPGVPSRFSGSLIGDKATLTISSLQPEDFATYYCALWYSNLWVFGQGTKVEIKAAAGSHHHHHH | 3.1 |
| CD33/CD3 tandem diabody 19 (bispecific antibody) DIQMTQSPSSLSASVGDRVTITCRSSTGAVTTSNYANWVQQKPGKAPKALIGGTNKRAPGVPSRFSGSLIGDKATLTISSLQPEDFATYYCALWYSNLWVFGQGTKVEIKGGSGGSQVQLVQSGAEVKKPGASVKVSCKASGYTFTSYYMHWVRQAPGQGLEWMGIINPSGGSTSYAQKFQGRVTMTRDTSTSTVYMELSSLRSEDTAVYYCARDVVPAAIDYYGMDVWGQGTTVTVSSGGSGQSVLTQPPSASGTPGQRVTISCSGSSSNIGSNTVNWYQQLPGTAPKLLIYSDNQRPSGVPDRFSGSKSGSSASLAISGLQSDDEADYYCATWDDSLNGAVFGGGTKLTVLGGSGGSEVQLVESGGGLVQPGGSLRLSCAASGFTFSTYAMNWVRQAPGKGLEWVGRIRSKYNNYATYYADSVKDRFTISRDDSKNSLYLQMNSLKTEDTAVYYCARHGNFGNSYVSYFAYWGQGTLVTVSSAAAGSHHHHHH | 37.3 |
